Assay results from PMC4337721 (2015).
Each block holds one binder with its values, some of them ahead of it.

Experiments:
[1] = target: BiP ATPase domain (residues 28–405), His6-tag removed (human, UniProt P11021 28-405); assay: MST
[2] = target: T1, full-length BiP (BiP FL, residues 28–654), His6-tag removed (human, UniProt P11021 28-654); assay: MST; 10 mM ATP
[3] = target: T1, full-length BiP (BiP FL, residues …); assay: MST; 10 mM AMPPNP
[4] = target: T1, full-length BiP (BiP FL, residues …); assay: MST; 10 mM ADP
[5] = target: T1, full-length BiP (BiP FL, residues …); assay: MST; no nucleotide

T1 sequence (P11021 28-654): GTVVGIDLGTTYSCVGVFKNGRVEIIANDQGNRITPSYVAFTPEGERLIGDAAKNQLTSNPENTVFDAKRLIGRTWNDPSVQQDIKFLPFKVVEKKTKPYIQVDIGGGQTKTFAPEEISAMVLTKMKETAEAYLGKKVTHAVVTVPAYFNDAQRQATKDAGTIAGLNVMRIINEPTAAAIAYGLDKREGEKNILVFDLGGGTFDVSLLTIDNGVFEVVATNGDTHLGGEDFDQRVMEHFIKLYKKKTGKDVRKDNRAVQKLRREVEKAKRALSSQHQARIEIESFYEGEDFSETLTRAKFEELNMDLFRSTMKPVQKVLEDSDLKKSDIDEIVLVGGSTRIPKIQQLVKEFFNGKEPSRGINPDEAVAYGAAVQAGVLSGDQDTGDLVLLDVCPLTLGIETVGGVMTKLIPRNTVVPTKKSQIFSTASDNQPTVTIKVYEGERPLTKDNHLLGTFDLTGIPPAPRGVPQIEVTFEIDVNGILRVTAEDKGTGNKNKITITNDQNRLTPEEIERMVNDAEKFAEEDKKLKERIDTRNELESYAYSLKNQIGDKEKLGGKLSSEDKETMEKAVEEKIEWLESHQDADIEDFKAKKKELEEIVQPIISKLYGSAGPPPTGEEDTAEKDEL
Chain of BiP ATPase domain (residues 28–405), His6-tag removed (P11021 28-405): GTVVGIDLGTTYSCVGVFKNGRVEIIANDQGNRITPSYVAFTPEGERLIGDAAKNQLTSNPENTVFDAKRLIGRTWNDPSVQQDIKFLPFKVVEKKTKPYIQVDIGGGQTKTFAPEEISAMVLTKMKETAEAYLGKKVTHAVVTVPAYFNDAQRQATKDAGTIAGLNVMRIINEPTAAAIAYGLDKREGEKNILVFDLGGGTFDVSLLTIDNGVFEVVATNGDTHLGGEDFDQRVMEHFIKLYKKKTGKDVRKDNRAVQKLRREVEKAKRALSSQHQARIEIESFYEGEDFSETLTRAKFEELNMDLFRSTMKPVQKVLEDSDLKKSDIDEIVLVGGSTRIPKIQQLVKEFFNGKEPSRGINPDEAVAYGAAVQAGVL

Kd [1]: 1860 nM
B1: Ire1 luminal domain region I–IV (residues 24–390) (domain or fragment)
chain: STVTLPETLLFVSTLDGSLHAVSKRTGSIKWTLKEDPVLQVPTHVEEPAFLPDPNDGSLYTLGSKNNEGLTKLPFTIPELVQASPCRSSDGILYMGKKQDIWYVIDLLTGEKQQTLSSAFADSLCPSTSLLYLGRTEYTITMYDTKTRELRWNATYFDYAASLPEDDVDYKMSHFVSNGDGLVVTVDSESGDVLWIQNYASPVVAFYVWQREGLRKVMHINVAVETLRYLTFMSGEVGRITKWKYPFPKETEAKSKLTPTLYVGKYSTSLYASPSMVHEGVAVVPRGSTLPLLEGPQTDGVTIGDKGECVITPSTDVKFDPGLKSKNKLNYLRNYWLLIGHHETPLSASTKMLERFPNNLPKHRENV

Kd [1]: 2690 nM
B2: Perk luminal domain region II–V (residues 105–509) (domain or fragment)
chain: LVIISTLDGRIAALDPENHGKKQWDLDVGSGSLVSSSLSKPEVFGNKMIIPSLDGALFQWDQDRESMETVPFTVESLLESSYKFGDDVVLVGGKSLTTYGLSAYSGKVRYICSALGCRQWDSDEMEQEEDILLLQRTQKTVRAVGPRSGNEKWNFSVGHFELRYIPDMETRAGFIESTFKPNENTEESKIISDVEEQEAAIMDIVIKVSVADWKVMAFSKKGGHLEWEYQFCTPIASAWLLKDGKVIPISLFDDTSYTSNDDVLEDEEDIVEAARGATENSVYLGMYRGQLYLQSSVRISEKFPSSPKALESVTNENAIIPLPTIKWKPLIHSPSRTPVLVGSDEFDKCLSNDKFSHEEYSNGALSILQYPYDNGYYLPYYKRERNKRSTQITVRFLDNPHYNKN

Kd [1]: 2020 nM
B3: Ire1 luminal domain region II–V (residues 32–440) (domain or fragment)
chain: LLFVSTLDGSLHAVSKRTGSIKWTLKEDPVLQVPTHVEEPAFLPDPNDGSLYTLGSKNNEGLTKLPFTIPELVQASPCRSSDGILYMGKKQDIWYVIDLLTGEKQQTLSSAFADSLCPSTSLLYLGRTEYTITMYDTKTRELRWNATYFDYAASLPEDDVDYKMSHFVSNGDGLVVTVDSESGDVLWIQNYASPVVAFYVWQREGLRKVMHINVAVETLRYLTFMSGEVGRITKWKYPFPKETEAKSKLTPTLYVGKYSTSLYASPSMVHEGVAVVPRGSTLPLLEGPQTDGVTIGDKGECVITPSTDVKFDPGLKSKNKLNYLRNYWLLIGHHETPLSASTKMLERFPNNLPKHRENVIPADSEKKSFEEVINLVDQTSENAPTTVSRDVEEKPAHAPARPEAPVDSM

Kd [1]: 2280 nM
B4: Perk luminal domain region II–IV (printed residues 54–403) (domain or fragment)
chain: LVIISTLDGRIAALDPENHGKKQWDLDVGSGSLVSSSLSKPEVFGNKMIIPSLDGALFQWDQDRESMETVPFTVESLLESSYKFGDDVVLVGGKSLTTYGLSAYSGKVRYICSALGCRQWDSDEMEQEEDILLLQRTQKTVRAVGPRSGNEKWNFSVGHFELRYIPDMETRAGFIESTFKPNENTEESKIISDVEEQEAAIMDIVIKVSVADWKVMAFSKKGGHLEWEYQFCTPIASAWLLKDGKVIPISLFDDTSYTSNDDVLEDEEDIVEAARGATENSVYLGMYRGQLYLQSSVRI

Kd [1]: 2350 nM
B5: Perk luminal domain region I–IV (residues 54–403) (domain or fragment)
chain: TSATRVPAAGAVAAAEVTVEDAEALPAAAGEQEPRGPEPDDETELRPRGRSLVIISTLDGRIAALDPENHGKKQWDLDVGSGSLVSSSLSKPEVFGNKMIIPSLDGALFQWDQDRESMETVPFTVESLLESSYKFGDDVVLVGGKSLTTYGLSAYSGKVRYICSALGCRQWDSDEMEQEEDILLLQRTQKTVRAVGPRSGNEKWNFSVGHFELRYIPDMETRAGFIESTFKPNENTEESKIISDVEEQEAAIMDIVIKVSVADWKVMAFSKKGGHLEWEYQFCTPIASAWLLKDGKVIPISLFDDTSYTSNDDVLEDEEDIVEAARGATENSVYLGMYRGQLYLQSSVRI

Kd [2]: 830 nM | Kd [3]: 850 nM | Kd [4]: 1370 nM | Kd [5]: 1340 nM
B6: Perk luminal domain, complete (region I–V, residues 54–509) (domain or fragment)
chain: TSATRVPAAGAVAAAEVTVEDAEALPAAAGEQEPRGPEPDDETELRPRGRSLVIISTLDGRIAALDPENHGKKQWDLDVGSGSLVSSSLSKPEVFGNKMIIPSLDGALFQWDQDRESMETVPFTVESLLESSYKFGDDVVLVGGKSLTTYGLSAYSGKVRYICSALGCRQWDSDEMEQEEDILLLQRTQKTVRAVGPRSGNEKWNFSVGHFELRYIPDMETRAGFIESTFKPNENTEESKIISDVEEQEAAIMDIVIKVSVADWKVMAFSKKGGHLEWEYQFCTPIASAWLLKDGKVIPISLFDDTSYTSNDDVLEDEEDIVEAARGATENSVYLGMYRGQLYLQSSVRISEKFPSSPKALESVTNENAIIPLPTIKWKPLIHSPSRTPVLVGSDEFDKCLSNDKFSHEEYSNGALSILQYPYDNGYYLPYYKRERNKRSTQITVRFLDNPHYNKN

Kd [2]: 1090 nM | Kd [3]: 1140 nM | Kd [4]: 1200 nM | Kd [5]: 1920 nM
B7: Ire1 luminal domain, complete (region I–V, residues 24–440) (domain or fragment)
chain: STVTLPETLLFVSTLDGSLHAVSKRTGSIKWTLKEDPVLQVPTHVEEPAFLPDPNDGSLYTLGSKNNEGLTKLPFTIPELVQASPCRSSDGILYMGKKQDIWYVIDLLTGEKQQTLSSAFADSLCPSTSLLYLGRTEYTITMYDTKTRELRWNATYFDYAASLPEDDVDYKMSHFVSNGDGLVVTVDSESGDVLWIQNYASPVVAFYVWQREGLRKVMHINVAVETLRYLTFMSGEVGRITKWKYPFPKETEAKSKLTPTLYVGKYSTSLYASPSMVHEGVAVVPRGSTLPLLEGPQTDGVTIGDKGECVITPSTDVKFDPGLKSKNKLNYLRNYWLLIGHHETPLSASTKMLERFPNNLPKHRENVIPADSEKKSFEEVINLVDQTSENAPTTVSRDVEEKPAHAPARPEAPVDSM

Kd [1]: 1550 nM
B8: Ire1 luminal domain region II–IV (residues 32–390) (domain or fragment)
chain: LLFVSTLDGSLHAVSKRTGSIKWTLKEDPVLQVPTHVEEPAFLPDPNDGSLYTLGSKNNEGLTKLPFTIPELVQASPCRSSDGILYMGKKQDIWYVIDLLTGEKQQTLSSAFADSLCPSTSLLYLGRTEYTITMYDTKTRELRWNATYFDYAASLPEDDVDYKMSHFVSNGDGLVVTVDSESGDVLWIQNYASPVVAFYVWQREGLRKVMHINVAVETLRYLTFMSGEVGRITKWKYPFPKETEAKSKLTPTLYVGKYSTSLYASPSMVHEGVAVVPRGSTLPLLEGPQTDGVTIGDKGECVITPSTDVKFDPGLKSKNKLNYLRNYWLLIGHHETPLSASTKMLERFPNNLPKHRENV
